Kd, koff and kon data for one molecule are collected here from US20230391853A1 (FAPON BIOTECH, published 2023).

For the experiment, the target named is T1, 2019-nCoV N protein antigen (2019-nCoV (novel coronavirus), UniProt P0DTC9 1-419).
T1 construct: Coated on plates in ELISA; in solution in the AMC sensor assay; also called N protein of the novel coronavirus; nucleocapsid protein (N protein)
In words: AMC sensor kinetics, antibody captured. The protocol: Operational process: equilibrium was performed in buffer 1 (PBST) for 60 s, the antibody was cured in an antibody solution for 300 s, incubation was performed in buffer 2 (PBST) for 180 s, binding was performed in an antigen solution for 420 s, dissociation was performed in buffer 2 for 1200 s, sensor regeneration was performed with a 10 mM pH 1.69 GLY solution and buffer 3, and data were outputted. KD represents an equilibrium dissociation constant, that was, the affinity; kon represents the binding rate; and kdis represents the dissociation rate.

B1: WT (antibody, mouse IgG1, kappa, V domains shown)
VH: DVQLVESGGGLVQPGGSRKLSCAASGVTFSTFAMHWVRQAPEKGLEWVAYLNSASNLIYYADTLKGRFTISRDNPKNTLFLQMTSLRSEDTAMYYCTRHAMDYWGQGTSVTVSS
VL: DIVLTQSPASLAVSLGQRATISCKASQSIDYDGDSFMNWFQQKPGQPPKLLIYDASNVESGIPARFSGSGSGTDFTLNIHPVEEEDAATYYCQHSNEDPYTFGGGTKLEIKR
notes: also called VT; antibody in Embodiment 1
As usually defined, the Kd is the equilibrium constant for the complex coming apart. Low readings indicate a tighter complex, high ones a looser complex. As usually defined, the koff is the rate constant with which the complex falls apart. A lower koff goes with a long-lived complex. In general, kon refers to a measure of how fast the partners come together. The molecule B1 gave a Kd of 8.03 nM, a koff of 0.00141 s⁻¹ and a kon of 175000 M⁻¹ s⁻¹.
